Assays:
[1] = target: T1, recombinant human sulfamidase (rSGSH)
T1 chain: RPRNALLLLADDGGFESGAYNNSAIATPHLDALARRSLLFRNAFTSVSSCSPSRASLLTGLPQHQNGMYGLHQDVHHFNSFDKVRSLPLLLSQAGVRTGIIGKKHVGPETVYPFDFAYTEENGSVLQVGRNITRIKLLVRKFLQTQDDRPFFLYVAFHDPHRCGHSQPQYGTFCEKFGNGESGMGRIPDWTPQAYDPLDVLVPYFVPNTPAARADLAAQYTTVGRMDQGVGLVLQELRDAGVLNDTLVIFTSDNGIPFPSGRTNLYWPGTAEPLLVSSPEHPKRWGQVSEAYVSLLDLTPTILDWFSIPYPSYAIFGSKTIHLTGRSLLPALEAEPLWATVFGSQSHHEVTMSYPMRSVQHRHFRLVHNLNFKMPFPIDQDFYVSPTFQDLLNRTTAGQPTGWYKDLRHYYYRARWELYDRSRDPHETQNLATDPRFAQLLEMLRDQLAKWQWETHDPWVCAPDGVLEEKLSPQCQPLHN

[2] = target: T2, recombinant human iduronate-2 sulfatase (rhIDS)
T2 chain: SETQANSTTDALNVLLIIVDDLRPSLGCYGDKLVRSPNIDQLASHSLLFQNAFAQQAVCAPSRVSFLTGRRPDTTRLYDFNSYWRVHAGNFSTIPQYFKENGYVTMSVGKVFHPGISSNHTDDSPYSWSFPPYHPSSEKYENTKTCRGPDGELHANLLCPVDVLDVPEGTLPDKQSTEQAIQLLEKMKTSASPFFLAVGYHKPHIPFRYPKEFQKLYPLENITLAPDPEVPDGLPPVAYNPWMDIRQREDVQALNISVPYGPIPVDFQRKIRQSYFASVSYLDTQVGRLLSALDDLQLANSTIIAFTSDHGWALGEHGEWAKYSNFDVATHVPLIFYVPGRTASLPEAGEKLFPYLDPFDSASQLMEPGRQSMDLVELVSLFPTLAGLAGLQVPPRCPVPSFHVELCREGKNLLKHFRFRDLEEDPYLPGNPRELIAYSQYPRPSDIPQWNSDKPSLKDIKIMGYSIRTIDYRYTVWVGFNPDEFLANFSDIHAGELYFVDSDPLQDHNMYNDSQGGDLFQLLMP

B1: Bos taurus FGE fusion protein (Lip2pre-BtFGE-6HIS-HDEL) (protein)
chain: GEEAGPEAGAPSLVGSCGCGNPQRPGAQGSSAAAHRYSREANAPGSVPGGRPSPPTKMVPIPAGVFTMGTDDPQIKQDGEAPARRVAIDAFYMDAYEVSNAEFEKFVNSTGYLTEAEKFGDSFVFEGMLSEQVKSDIQQAVAAAPWWLPVKGANWRHPEGPDSTVLHRPDHPVLHVSWNDAVAYCTWAGKRLPTEAEWEYSCRGGLQNRLFPWGNKLQPKGQHYANIWQGEFPVTNTGEDGFRGTAPVDAFPPNGYGLYNIVGNAWEWTSDWWTVHHSAEETINPKGPPSGKDRVKKGGSYMCHKSYCYRYRCAARSQNTPDSSASNLGFRCAADHLPTTGADHLPTTGHHHHHHHDEL
% FGly conversion; sample 1, SGSH (POX) + BtFGE (POX) + hPDI (POX) [1]: 95.4%
% FGly conversion; sample 2, SGSH (POX) + BtFGE (POX) + hPDI (POX) [1]: 80.4%
% FGly conversion; sample 3, SGSH (POX) + BtFGE (POX) + hPDI (POX) § [1]: 93.4%
% FGly conversion; sample 4, SGSH (POX) + BtFGE (POX) + hPDI (POX) § [1]: 86.1%
% FGly conversion; sample 5, SGSH (POX) + BtFGE (POX & Hp4d) [1]: 94.4%
% FGly conversion (nano-LC MS); strain T146 (OXYY1828; BtFGE) [2]: 89.8%
% FGly conversion (nano-LC MS); strain T146 (OXYY1828; BtFGE), duplicate [2]: 92.7%
% FGly conversion-re-analyzed samples; DG29U5#7, OXYY1828; BtFGE [2]: 95.8%
% FGly conversion-re-analyzed samples; DG33U6#6, OXYY1803; BtFGE and hPDI co-expressed [2]: 90.3%
% FGly conversion-re-analyzed samples; DG33U8#6, OXYY1828; BtFGE [2]: 97.1%
% FGly conversion; DG33U6#6, OXYY1803; BtFGE and hPDI co-expressed [2]: 79.5%
% FGly conversion; two copies of rhIDS and one copy of BtFGE (POX2 driven) [2]: 100% FGly conversion at a detection limit of -0.5%
% active rhIDS (4MU activity against ELISA); 1 copy rhIDS, 1 copy BtFGE (POX) [2]: 129%
% active rhIDS (4MU activity against ELISA); 1 copy rhIDS, 1 copy BtFGE (POX), 1 copy hPDI (POX) [2]: 121%
% activity of rhIDS; two copies of rhIDS and one copy of BtFGE (POX2 driven) [2]: 101% activity
Cys->FGly conversion in rhIDS (nano-LC-MS after cation exchange purification); BtFGE as a single POX2 driven copy [2]: complete conversion (100%, with a detection limit of -0.5%)
active rhIDS (4MU fluorogenic activity assay against sandwich ELISA), co-expression in Y. lipolytica [2]: All Y. lipolytica strains co-expressing rFGE with rhIDS resulted in the expression of active rhIDS.

Source: patent publication US20190040368
